From patent US20220204633A1 (UNIVERSIT T Z RICH, published 2022)

Target: T1, human recombinant biotinylated FcRn (Immunitrack) (human, UniProt P55899 24-297; P61769 21-119, limits assumed, biotinylated (site not stated))
T1 construct: Immobilized on a ProteOn NLC chip for SPR at pH 6.0; also called human FcRn; human recombinant FcRn
Experiment: SPR, human FcRn immobilized, IL-12Fc variants in liquid phase, pH 6.0

fold reduction of affinity against IL-12Fc WT: ~8 fold
B1: human IL-12Fc NHQ (Fc fusion)
chain: IWELKKDVYVVELDWYPDAPGEMVVLTCDTPEEDGITWTLDQSSEVLGSGKTLTIQVKEFGDAGQYTCHKGGEVLSHSLLLLHKKEDGIWSTDILKDQKEPKNKTFLRCEAKNYSGRFTCWWLTTISTDLTFSVKSSRGSSDPQGVTCGAATLSAERVRGDNKEYEYSVECQEDSACPAAEESLPIEVMVDAVHKLKYENYTSSFFIRDIIKPDPPKNLQLKPLKNSRQVEVSWEYPDTWSTPHSYFSLTFCVQVQGKSKREKKDRVFTDKTSATVICRKNASISVRAQDRYYSSSWSEWASVPCSGGGGSGGGGSGGGGSRNLPVATPDPGMFPCLHHSQNLLRAVSNMLQKARQTLEFYPCTSEEIDHEDITKDKTSTVEACLPLELTKNESCLNSRETSFITNGSCLASRKTSFMMALCLSSIYEDLKMYQVEFKTMNAKLLMDPKRQIFLDQNMLAVIDELMQALNFNSETVPQKSSLEEPDFYKTKIKLCILLHAFRIRAVTIDRVMSYLNASKVDKRVESKYGPPCPPCPAPEFLGGPSVFLFPPKPKDTLMNSRTPEVTCVVVDVSQEDPEVQFNWYVDGVEVHNAKTKPREEQFNSTYRVVSVLTVLHQDWLNGKEYKCKVSNKGLPSSIEKTISKAKGQPREPQVYTLPPSPEEMTKNQVSLTCLVKGFYPSDIAVEWESNGQPENNYKTTPPVLDSDGSFFLYSRLTVDKSRWQEGNVFSCSVMHEALHNQYTQKSLSLSLGK
notes: also called NHQ variant
